According to the nanobody polyreactivity screen of Harvey et al. (2022):

Test: yeast display, Sf9 membrane polyspecificity reagent, FACS + sequencing; frameworks hold sequencing errors
How it was run: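 In a synthetic yeast display library (Saccharomyces cerevisiae BJ5465), nanobody expression was induced with galactose for 36–48 hours. FACS gates were set low and high (top ~1%) using anti-HA fluorescence for expression and streptavidin fluorescence for binding of the Sf9 membrane reagent. Each polyreactivity label is drawn from the gate of origin.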

Sequence	polyreactivity (PSR sort gate)
QVQLVESGGGLVQAGGSLRLSCAAYGSTFRYYTMGWYRQAPGKERELVAAISGSGGITYYADSLKGRFTISRDNAKNTVYLQMNSLKPEDTAVYYCAAESRYYPYWGQSVQYDYWGQGTQVTVSS	high polyreactivity
QVQLVESGGGLVQAGGSLRLSCAAYGSTFSTYAMGWYRQAPGKEREMVAAITLSSGRTTYADSVKGRFTISRDNAKNTVYLQMNSLKPEDTAVYYCNAYYGAAFTYWDYYWGQGTQVTVSS	low polyreactivity
QVQLVESGGGLVQAGGSLRLSCAAYGSTFVLYGMGWYRQAPGKEWELVAAISTSGGRTYYADSEKGRFTISRDNAKNSVSLQMNSLKPEDTAVYYCAALTYVAHYDEYWGQGTQVTVSS	low polyreactivity
QVQLVESGGGLVQAGGSLRLSCAAYGSTFWPYAKGWSRQAPGKERELVAAISSSGGSTYYADSVKGRFTISRDNAKHTVYLQMNSLIPEDTAVYYCNIDYHRPYGGGSKGDFWGQGTQVTVSS	low polyreactivity
QVQLVESGGGLVQAGGSLRLSCAAYGSTYGTNALGWYRQAPGKERELVAAITSRVGRTYYADSVKGRFTISRDNAKNTVYLQMNSLKPEDTAVYYCAASRLVRYQSRYGSWGQGTQVTVSS	high polyreactivity
QVQLVESGGGLVQAGGSLRLSCAAYGTIFFSYSMGWYRQAPGKERELVADIRSSDDDTYYADSVKGRFTISRDNAKNTGYLQMNSMKPEDTAVYYCNADFGYWWDGRRYDYWGQGTQVTVSS	low polyreactivity
QVQLVESGGGLVQAGGSLRLSCAAYGYTFDSYTIGWYRQAPGKERELVAAITRSGSSTYYADSVKGRFTISRDNAKNTVYLQMNSLKPDDTAVYSCAAGWRRADGIEYWYGYWGQGTQVTVSS	high polyreactivity
QVQLVESGGGLVQAGGSLRLSCADSARIFSFNTMGWYRQAPGKETELVAAISYRGRTYYADSVKGRFTISRDNAKKTVYLQMNSLKPEDTAVYYCIAVYGYWYGSWGQGTQVTVSS	high polyreactivity
QVQLVESGGGLVQAGGSLRLSCADSGFIFATNAMGWYRQAPGKERDFVAAITSGGSTYYADSVKGRFTISRDNAKNTVYLQMNSLKPEDTAVYYCNARTYSRVTRQTYRYRPYDYWGQGTQVSVSS	high polyreactivity
QVQLVESGGGLVQAGGSLRLSCADSGFIFGYYAKGWYRQAPGKERELVADISRGGNTNYADSVKGRFTISRDNAKNTVYLQMNSLKPEDTAVYYCARYRRGKMDYCGQGTQVTVSS	high polyreactivity
QVQLVESGGGLVQAGGSLRLSCADSGFIFTAYAMGWYRQAPGKERELVAAISRSGGRTYYADSVKGRFTISRDNAKNTVYLQMNSLKPEDTAVYYCNADFHSGGGYWGQGTQVTLSS	high polyreactivity
QVQLVESGGGLVQAGGSLRLSCADSGFIFTVNAMGWYRQAPGKERELVAAITSGGNTYYADSVKGRFTISRDNAKNTVYLQMNSLKPEDAAVYYCNAVFYTWSPYGTTVRSYGYWGQGTQVTVSS	high polyreactivity
QVQLVESGGGLVQAGGSLRLSCADSGFSIWWYDMGWYRQAPGKERELVAAITADGGDTYYADSVKGRFTISRDYANHTDYLQMNSLKPEDTAVYYCAAEYDVYGYYYWGQGTQVTVSS	high polyreactivity
QVQLVESGGGLVQAGGSLRLSCADSGFTFLSNVMGWYRQAPGKERELDAAINYSGDGTYYADSVKGRFTISRDNAKNTVYLQMNSLKPEDSAVYYCAADVEYYRDVPPQVYVSDDYWGQGTQVTVSS	low polyreactivity
QVQLVESGGGLVQAGGSLRLSCADSGFTFSWYTMGWYRQAPGKERELVASITVSGGSTYYADSVKGRFTISRDNAKNTVYLQMNSLKPEDTAVYYCNAQDPFTYYSSSPTYDYWGQGTQVTVSS	low polyreactivity
QVQLVESGGGLVQAGGSLRLSCADSGFTFTYYDMGWYRQAPGKERELVAAISSGGSTNYADSVKGRFTISRDNAKNTVYLQMNSLKPEDTAVYYCAASITHYWYGYWGQGTQVTVSS	high polyreactivity

Sequence	polyreactivity (PSR sort gate)
QVQLVESGGGLVQAGGSLRLSCADSGGIFDWNDMGWYRHEPGKESELVAAITSGGVTYYADSVKGRFTISRDNAKNTVYLQMNSLIPDDTSVFYCATGYWGLWYGYDSWGQGTQVTVSS	low polyreactivity
QVQLVESGGGLVQAGGSLRLSCADSGGIFNTYAMGWYRQAPGKEREFVAAISRRGGGTYYADSVKGRFTISRDNAKNTVYLQMNSLKPEDTAVYYCAAKRFHEHGYWGQGTQVTVSS	high polyreactivity
QVQLVESGGGLVQAGGSLRLSCADSGGILFNYDMGWYRPAPGKERELVAAISRRGGTTYYADSVKGRFTISRDNAKNTVYLQMNSLKPEDTAVYYCAAYIYYSYYARVGYGDGNGYDYWGQGTQVTVSS	high polyreactivity
QVQLVESGGGLVQAGGSLRLSCADSGITFDANTMGWYRQAPGKERELVAVITDTGSTNYADSVKGRFTISRDNAKNTVYLQMNSLKPEDTAVYYCNADAEPSSGTSANNDYWGQGTQVTVSS	low polyreactivity
QVQLVESGGGLVQAGGSLRLSCADSGITLQSYAMGWYRQAPGKERELVAAITSGSSTHYADSVKGRFTISRYNAKYTVYLQMYSLKPEDTAVYYCAADRVYFGDLFVVYYFIQYDFWGQGTQVTVSS	low polyreactivity
QVQLVESGGGLVQAGGSLRLSCADSGLIFTANDRGWYRQAPGKERELVADISKSGSSTYYADSVKGRFTISRDNAKNTVYLQMNSLKPEDTAVYYCNADYLTYFTTFDYWGQGTQVTVSS	low polyreactivity
QVQLVESGGGLVQAGGSLRLSCADSGLTFGRNAMGWYRHAPGKERELVAAITFNGGSTYYADSVKGRFTISRDNAKNTVYLQMNSLKPEDTAVYYCSGRLWRRSRFDYWGQGTQVTVSS	high polyreactivity
QVQLVESGGGLVQAGGSLRLSCADSGLTFIYYAMGWYRQAHGKERELVAAISSSGGRTYYADSVKGRFTISRDNAKNTVYLQMNSLKPEDTAVYYCATRYWTQSSSFDYWGQGTQVTVSS	high polyreactivity
QVQLVESGGGLVQAGGSLRLSCADSGLTFWVYAMGWYRQAPGKERELVAAISSGGSTNYADSVKGRFTISRDNAKNTVYVQMNSLKPEDTAVYYCAAEWVYWQDELWDSPGLVEFDYWGQGTQVTVSS	low polyreactivity
QVQLVESGGGLVQAGGSLRLSCADSGNIFSTYAMGWYRQEPGKERELVASISENGGSTYYADSVKGRFTISRDNAKNTVYLQMNCLKPEDTAVYYCAIGPLYSLFFQHDAPYRYGYWGQGTQVTVSS	low polyreactivity
QVQLVESGGGLVQAGGSLRLSCADSGRIFGYYTMGWSRQAPGKERELVAAITSSGSSTYYADSVKGRFTISRDNAKNTVYLQMNSLKPEDTAVYYCNARAYWRNEYWGQGTQVTVSS	high polyreactivity
QVQLVESGGGLVQAGGSLRLSCADSGRIFQPNVMGWYRQAPGKERELVAAIRSGSSTYYADSVKGRFTISRDNAKNTVYLQMNSLKPEDTAVYYCATRRAGRGYDYWGQGTQVTVSS	high polyreactivity
QVQLVESGGGLVQAGGSLRLSCADSGRIFRGNTMGWYRQAPGKERELVATINGRGGSTYYADSVKGRFTISRDNAKNTLYLQMNSLKPEDTAVYYCAARARTTRSATYDYWGQGTQVTVSS	high polyreactivity
QVQLVESGGGLVQAGGSLRLSCADSGRIFTSYVMGWYRPAPGQERELVAAITRSGGSTYYADSVKGRFTNSRDNAKNTVYLQMNSLKPEDTAVYYCIALTRRQKGGEGGGYWGQGTQVTVSS	high polyreactivity
QVQLVESGGGLVQAGGSLRLSCADSGRIFYRYAMGWYRQAPGKERELVAAITNSGGRTYYADSVKGRFTISRDNAKNTVYLQMNSVKPEDSAVYYCNAVKTSEYDYWGQGTQVTVSS	high polyreactivity
